In this data set the target is T1, Cascade (type I-E effector complex) (Escherichia coli, UniProt Q46901;P76632;Q46899;Q46898;Q46897 1-502;1-160;1-363;1-224;1-199).
T1 sequence 1: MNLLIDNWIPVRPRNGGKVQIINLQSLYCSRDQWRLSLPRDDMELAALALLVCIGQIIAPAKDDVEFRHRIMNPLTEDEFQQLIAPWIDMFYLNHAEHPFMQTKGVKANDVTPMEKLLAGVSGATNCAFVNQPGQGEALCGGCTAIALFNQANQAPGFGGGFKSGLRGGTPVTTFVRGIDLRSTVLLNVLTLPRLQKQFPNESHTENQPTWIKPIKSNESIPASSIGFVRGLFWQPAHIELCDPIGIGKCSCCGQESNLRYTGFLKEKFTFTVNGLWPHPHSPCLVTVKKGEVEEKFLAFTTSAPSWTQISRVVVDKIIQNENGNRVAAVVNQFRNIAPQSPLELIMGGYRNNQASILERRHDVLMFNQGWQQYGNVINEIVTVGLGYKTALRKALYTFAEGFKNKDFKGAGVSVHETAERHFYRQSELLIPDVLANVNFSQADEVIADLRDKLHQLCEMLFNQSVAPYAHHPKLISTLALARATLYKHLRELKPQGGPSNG
T1 sequence 2: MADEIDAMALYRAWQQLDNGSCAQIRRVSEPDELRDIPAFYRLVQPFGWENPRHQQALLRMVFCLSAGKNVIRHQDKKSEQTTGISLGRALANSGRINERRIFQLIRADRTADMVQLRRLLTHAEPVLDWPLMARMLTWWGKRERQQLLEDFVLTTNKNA
T1 sequence 3: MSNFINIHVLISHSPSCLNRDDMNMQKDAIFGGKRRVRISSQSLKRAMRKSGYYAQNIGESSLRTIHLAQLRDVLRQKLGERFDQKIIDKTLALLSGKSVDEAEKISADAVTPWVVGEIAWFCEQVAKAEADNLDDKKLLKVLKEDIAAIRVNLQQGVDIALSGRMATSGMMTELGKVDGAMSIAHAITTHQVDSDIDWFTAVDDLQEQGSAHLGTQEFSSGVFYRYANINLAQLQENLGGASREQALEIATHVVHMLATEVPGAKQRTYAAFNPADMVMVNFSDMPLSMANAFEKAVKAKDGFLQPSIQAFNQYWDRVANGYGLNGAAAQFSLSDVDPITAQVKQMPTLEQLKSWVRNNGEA
T1 sequence 4: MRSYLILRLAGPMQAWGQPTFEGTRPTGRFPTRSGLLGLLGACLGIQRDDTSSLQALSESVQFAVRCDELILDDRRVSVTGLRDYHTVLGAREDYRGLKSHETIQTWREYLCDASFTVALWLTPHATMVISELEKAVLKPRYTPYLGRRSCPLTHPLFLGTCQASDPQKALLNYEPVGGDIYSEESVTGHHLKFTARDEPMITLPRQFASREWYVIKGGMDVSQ
T1 sequence 5: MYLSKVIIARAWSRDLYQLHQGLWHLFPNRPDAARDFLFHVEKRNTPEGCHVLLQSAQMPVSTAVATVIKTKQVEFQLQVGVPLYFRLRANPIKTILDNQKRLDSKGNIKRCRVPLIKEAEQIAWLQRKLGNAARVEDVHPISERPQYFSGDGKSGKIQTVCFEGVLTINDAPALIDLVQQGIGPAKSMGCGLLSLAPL
The data set is described as follows: EMSA. A general note: In EMSA bound probe runs differently from free probe, usually more slowly.

Data on 1 molecule can be found in PMC5778469.

B1: sp8 target, 5-ghmC, with Cascade crRNA sp8 (dsDNA)
DNA 1: TTCATTTGATGCTCGATGAGTTTTTCTAAAAGCTGACGACCGGGTCTCCGCAAGTGGCACTTTTCCATGACCAAAATCCCTTAACGTGAGTTTTCGTT
DNA 2: AACGAAAACTCACGTTAAGGGATTTTGGTCATGGAAAAGTGCCACTTGCGGAGACCCGGTCGTCAGCTTTTAGAAAAACTCATCGAGCATCAAATGAA
modifications: glucosyl-5-hydroxymethylcytosine replacing C; exact positions not stated
With B1, the binding result was “no binding”.
